Measurements taken from PMC3715405.

Biological target: T1, WT tetherin (human tetherin internally tagged with an HA epitope at amino acid 155) (human), Q10589
T1 chain: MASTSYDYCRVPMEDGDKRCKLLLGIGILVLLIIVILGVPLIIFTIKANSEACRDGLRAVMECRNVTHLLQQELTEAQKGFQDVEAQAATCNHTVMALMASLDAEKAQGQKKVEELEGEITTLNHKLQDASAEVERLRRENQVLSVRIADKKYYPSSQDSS
Assay: non-reducing SDS-PAGE and western blot; lysates of 293T cells cotransfected with HIV-1 ΔVpu proviral plasmid and tetherin plasmids, lysed in non-reducing buffer, probed with anti-HA; shows disulphide-linked dimers
Conditions: remark: other sources report otherwise

B1: WT tetherin (human tetherin internally tagged with an HA epitope at amino acid 155), Q10589 1-161 (natural protein)
chain: MASTSYDYCRVPMEDGDKRCKLLLGIGILVLLIIVILGVPLIIFTIKANSEACRDGLRAVMECRNVTHLLQQELTEAQKGFQDVEAQAATCNHTVMALMASLDAEKAQGQKKVEELEGEITTLNHKLQDASAEVERLRRENQVLSVRIADKKYYPSSQDSS
modifications: here or on the partner: glycosylphosphatidylinositol (GPI) membrane anchor at the C-terminus; heterogeneously glycosylated; glycosylphosphatidylinositol (GPI) membrane anchor at the C-terminus; heterogeneously glycosylated
**Q.** With B1 as the binder, how does the stoichiometry N read?
**A.** 2
